# In publication PMC3005839:
# Where “and” joins values, the source holds several entries; their conditions need not be identical. Equal entries are not always repeated.
# Columns and labels:
# [1] = biological target: Nucleosome core particle NCP-601 (Xenopus laevis); assay: native gel or EMSA; low ionic strength: 0.25X TBE (0.25X TAE for 12-array); preassembled NCP or array incubated with HMGN or NBD peptide about 30 min at room temperature, electrophoresis at 4°C; 0.5 μM nucleosome core sites; NCP on 6% polyacrylamide, array on 1% agarose/1.3% polyacrylamide
# [2] = biological target: Nucleosome core particle NCP147 (Xenopus laevis); assay: as above
# [3] = biological target: Centered nucleosome core particle NCP146b (Xenopus laevis); assay: as above
# [4] = biological target: Nucleosome core particle NCP-601 (Xenopus laevis); assay: native gel or EMSA; near physiological ionic strength: 1X TBE (89 mM Tris-HCl, 89 mM boric acid, 1.0 mM EDTA, pH 8.3); preassembled NCP or array incubated with HMGN about 30 min at room temperature, electrophoresis at 4°C; 0.5 μM nucleosome core sites
# [5] = biological target: Nucleosome core particle NCP147 (Xenopus laevis); assay: as above
Substance,stoichiometry N (HMGN : nucleosome) [1],stoichiometry N (HMGN : nucleosome) [2],stoichiometry N (HMGN : nucleosome) [3],stoichiometry N (HMGN : nucleosome core particle) [4],stoichiometry N (HMGN : nucleosome core particle) [5]
Xenopus laevis HMGN1 (natural protein),1 and 2,1 and 2,1 and 2,2,2
Xenopus laevis HMGN2 (natural protein),2 and 1,1 and 2,1 and 2,2,2
